US20250163127A1
One block for each binder: values may come before it.

Experiments:
human PD-1 (human) [1] = molecular target: human PD-1 (human) (UniProt Q15116); test: flow cytometry, Jurkat/PD-1 cells
human PD-1 (human) [2] = molecular target: human PD-1 (human) (UniProt Q15116); test: flow cytometry, CHO/PD-1 cells, 100 nM, anti-Flag
human CTLA-4 (human) = test: flow cytometry, CHO/CTLA-4 cells, 100 nM, anti-Flag
CD28 (human) = CD28 (human) (UniProt P10747); test: flow cytometry, Jurkat cells (endogenous CD28), 100 nM, anti-Flag
CD80 (human) = test: flow cytometry, cells expressing CD80, 20 nM
human PD-1 (human) [3] = molecular target: human PD-1 (human) (UniProt Q15116); test: flow cytometry, cells expressing PD-1, 20 nM
human PD-1 (human) [4] = molecular target: human PD-1 (human) (UniProt Q15116)
human PD-1 (human) [5] = molecular target: human PD-1 (human) (UniProt Q15116); test: flow cytometry, Jurkat/PD-1 cells, 50 nM
CD226 (human) = molecular target: T1, CD226 (human) (UniProt Q15762); test: flow cytometry, transfected HEK293 cells
T1 sequence: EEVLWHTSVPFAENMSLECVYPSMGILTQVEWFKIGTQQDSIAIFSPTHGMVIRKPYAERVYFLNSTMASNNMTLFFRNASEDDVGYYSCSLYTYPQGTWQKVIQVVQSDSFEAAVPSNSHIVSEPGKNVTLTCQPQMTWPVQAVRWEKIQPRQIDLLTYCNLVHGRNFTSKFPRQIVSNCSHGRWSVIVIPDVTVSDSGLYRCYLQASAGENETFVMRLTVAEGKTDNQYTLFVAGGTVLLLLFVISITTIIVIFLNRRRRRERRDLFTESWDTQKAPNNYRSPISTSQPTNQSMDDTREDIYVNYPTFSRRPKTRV

CD96 (human) = molecular target: T2, CD96 (human) (UniProt P40200); test: flow cytometry, transfected HEK293 cells
T2 sequence: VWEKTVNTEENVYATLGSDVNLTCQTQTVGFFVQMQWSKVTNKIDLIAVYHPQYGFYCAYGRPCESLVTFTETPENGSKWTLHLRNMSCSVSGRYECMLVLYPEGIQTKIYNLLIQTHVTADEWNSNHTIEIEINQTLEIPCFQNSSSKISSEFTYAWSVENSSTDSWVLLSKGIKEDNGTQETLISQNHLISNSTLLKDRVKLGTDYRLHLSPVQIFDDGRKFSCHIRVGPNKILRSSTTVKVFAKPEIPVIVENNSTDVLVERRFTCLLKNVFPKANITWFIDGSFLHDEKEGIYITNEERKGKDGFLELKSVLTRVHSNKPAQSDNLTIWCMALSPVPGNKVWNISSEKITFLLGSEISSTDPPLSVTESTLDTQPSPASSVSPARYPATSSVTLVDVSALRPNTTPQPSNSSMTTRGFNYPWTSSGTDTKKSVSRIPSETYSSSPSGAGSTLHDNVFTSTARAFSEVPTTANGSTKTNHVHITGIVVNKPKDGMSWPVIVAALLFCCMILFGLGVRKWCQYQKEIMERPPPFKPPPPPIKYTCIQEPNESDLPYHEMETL

CTLA-4 (human) = test: flow cytometry on HEK293 cells transfected with CTLA4
PD-L1 (human) = test: flow cytometry on HEK293 cells transfected with PD-L1
Chain of PD-L1 (human) (chain, as listed by the source): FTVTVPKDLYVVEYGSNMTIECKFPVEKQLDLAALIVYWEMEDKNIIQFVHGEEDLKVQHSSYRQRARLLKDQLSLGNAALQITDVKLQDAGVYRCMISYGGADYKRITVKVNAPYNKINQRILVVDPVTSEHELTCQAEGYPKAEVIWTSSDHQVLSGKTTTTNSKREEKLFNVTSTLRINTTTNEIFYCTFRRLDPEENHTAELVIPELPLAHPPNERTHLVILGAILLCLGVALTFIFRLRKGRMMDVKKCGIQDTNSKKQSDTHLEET

Chain of human PD-1 (human) (Q15116 25-288): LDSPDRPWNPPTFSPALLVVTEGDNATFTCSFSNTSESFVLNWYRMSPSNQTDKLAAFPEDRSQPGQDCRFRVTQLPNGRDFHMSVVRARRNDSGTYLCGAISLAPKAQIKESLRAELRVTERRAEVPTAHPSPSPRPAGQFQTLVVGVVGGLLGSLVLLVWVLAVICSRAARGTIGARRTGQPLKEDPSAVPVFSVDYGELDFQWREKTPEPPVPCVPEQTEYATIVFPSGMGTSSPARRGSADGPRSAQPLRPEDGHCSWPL
Chain of CD80 (human) (chain, as listed by the source): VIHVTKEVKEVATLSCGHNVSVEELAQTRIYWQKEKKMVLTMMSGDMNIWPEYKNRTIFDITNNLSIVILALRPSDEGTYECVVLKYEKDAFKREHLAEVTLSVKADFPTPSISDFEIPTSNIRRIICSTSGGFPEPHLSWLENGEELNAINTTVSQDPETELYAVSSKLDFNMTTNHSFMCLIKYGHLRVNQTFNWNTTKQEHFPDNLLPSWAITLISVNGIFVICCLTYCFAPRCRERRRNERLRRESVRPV
Chain of human CTLA-4 (human) (chain, as listed by the source): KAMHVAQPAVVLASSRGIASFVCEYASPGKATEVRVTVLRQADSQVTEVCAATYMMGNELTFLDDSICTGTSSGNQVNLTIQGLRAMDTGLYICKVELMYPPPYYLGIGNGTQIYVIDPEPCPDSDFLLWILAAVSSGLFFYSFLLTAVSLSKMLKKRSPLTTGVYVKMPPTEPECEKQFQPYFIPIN

B1: PD-L1 IgV-Fc I20L/I36T/N45D/I47T (Fc fusion)
chain: FTVTVPKDLYVVEYGSNMTLECKFPVEKQLDLAALTVYWEMEDKDITQFVHGEEDLKVQHSSYRQRARLLKDQLSLGNAALQITDVKLQDAGVYRCMISYGGADYKRITVKVNA
Fold increase over wildtype PD-L1 IgV-Fc (human PD-1 (human) [1]): 0.6 fold
MFI at 50 nM (human PD-1 (human) [1]): 3120

B2: ICOSL 2264 (monomeric variant ICOSL IgV N52H/N57Y/Q100R) (ligand)
chain: DTQEKEVRAMVGSDVELSCACPEGSRFDLNDVYVYWQTSESKTVVTYHIPQHSSLEYVDSRYRNRALMSPAGMLRGDFSLRLFNVTPQDEQKFHCLVLSRSLGFQEVLSVEVTLHVAANFSV
MFI (human PD-1 (human) [2]): 1510
MFI (human CTLA-4 (human)): 70800
MFI (CD28 (human)): 16100

B8: Full length ECD of PD-L2, Fc fusion (Fc fusion)
chain: LFTVTVPKELYIIEHGSNVTLECNFDTGSHVNLGAITASLQKVENDTSPHRERATLLEEQLPLGKASFHIPQVQVRDEGQYQCIIIYGVAWDYKYLTLKVKASYRKINTHILKVPETDEVELTCQATGYPLAEVSWPNVSVPANTSHSRTPEGLYQVTSVLRLKPPPGRNFSCVFWNTHVRELTLASIDLQSQMEPRTHPT
IFN gamma levels pg/mL (MLR) (human PD-1 (human) [4]): 1170 pg/mL
MFI at 50 nM (human PD-1 (human) [5]): 2140 MFI

B9: variant CD155 IgV-Fc, S42L, S52Q, L104E (Fc fusion)
chain: WPPPGTGDVVVQAPTQVPGFLGDSVTLPCYLQVPNMEVTHVLQLTWARHGEQGSMAVFHQTQGPSYSESKRLEFVAARLGAELRNASLRMFGLRVEDEGNYTCEFVTFPQGSRSVDIWLRVL
MFI at 100 nM (CD226 (human)): 6470
MFI at 100 nM (CD96 (human)): 1700

B11: Variant CD80 E35D/A71D Fc fusion (Table E14B) (Fc fusion)
chain: VIHVTKEVKEVATLSCGHNVSVEELAQTRIYWQKDKKMVLTMMSGDMNIWPEYKNRTIFDITNNLSIVILDLRPSDEGTYECVVLKYEKDAFKREHLAEVT
MFI at 66.6 nM (CTLA-4 (human)): 150000 MFI
MFI at 22.2 nM (PD-L1 (human)): 13800 MFI

B12: Variant CD80 E35G/K54E/A71D/L72P Fc fusion (Fc fusion)
chain: VIHVTKEVKEVATLSCGHNVSVEELAQTRIYWQKGKKMVLTMMSGDMNIWPEYENRTIFDITNNLSIVILDPRPSDEGTYECVVLKYEKDAFKREHLAEVT
MFI at 22.2 nM (PD-L1 (human)): 1580 MFI

Continued, values first:

MFI at 20 nM (CD80 (human)): 11000 MFI
B3: variant PD-L1 K57R/S99G/R195G Fc fusion (Fc fusion)
chain: FTVTVPKDLYVVEYGSNMTIECKFPVEKQLDLAALIVYWEMEDKNIIQFVHGEEDLRVQHSSYRQRARLLKDQLSLGNAALQITDVKLQDAGVYRCMIGYGGADYKRITVKVNAPYNKINQRILVVDPVTSEHELTCQAEGYPKAEVIWTSSDHQVLSGKTTTTNSKREEKLFNVTSTLRINTTTNEIFYCTFRGLDPEENHTAELVIPELPLAHPPNER

MFI at 20 nM (human PD-1 (human) [3]): 10100 MFI
B4: variant PD-L1 N17D/M97L/S99G Fc fusion (Fc fusion)
chain: FTVTVPKDLYVVEYGSDMTIECKFPVEKQLDLAALIVYWEMEDKNIIQFVHGEEDLKVQHSSYRQRARLLKDQLSLGNAALQITDVKLQDAGVYRCLIGYGGADYKRITVKVNAPYNKINQRILVVDPVTSEHELTCQAEGYPKAEVIWTSSDHQVLSGKTTTTNSKREEKLFNVTSTLRINTTTNEIFYCTFRRLDPEENHTAELVIPELPLAHPPNER

MFI at 20 nM (human PD-1 (human) [3]): 62 MFI
B5: variant PD-L1 I36T/I83T/M97L/K144E/P198T Fc fusion (Fc fusion)
chain: FTVTVPKDLYVVEYGSNMTIECKFPVEKQLDLAALTVYWEMEDKNIIQFVHGEEDLKVQHSSYRQRARLLKDQLSLGNAALQTTDVKLQDAGVYRCLISYGGADYKRITVKVNAPYNKINQRILVVDPVTSEHELTCQAEGYPEAEVIWTSSDHQVLSGKTTTTNSKREEKLFNVTSTLRINTTTNEIFYCTFRRLDTEENHTAELVIPELPLAHPPNER

MFI at 20 nM (CD80 (human)): 1250 MFI
B6: variant PD-L1 I36T/M97L/Q155H/F193S/N201Y Fc fusion (Fc fusion)
chain: FTVTVPKDLYVVEYGSNMTIECKFPVEKQLDLAALTVYWEMEDKNIIQFVHGEEDLKVQHSSYRQRARLLKDQLSLGNAALQITDVKLQDAGVYRCLISYGGADYKRITVKVNAPYNKINQRILVVDPVTSEHELTCQAEGYPKAEVIWTSSDHHVLSGKTTTTNSKREEKLFNVTSTLRINTTTNEIFYCTSRRLDPEEYHTAELVIPELPLAHPPNER

MFI at 20 nM (human PD-1 (human) [3]): 70 MFI
B7: variant PD-L1 Y10F/M18V/S99G/Q138R/T203A Fc fusion (Fc fusion)
chain: FTVTVPKDLFVVEYGSNVTIECKFPVEKQLDLAALIVYWEMEDKNIIQFVHGEEDLKVQHSSYRQRARLLKDQLSLGNAALQITDVKLQDAGVYRCMIGYGGADYKRITVKVNAPYNKINQRILVVDPVTSEHELTCRAEGYPKAEVIWTSSDHQVLSGKTTTTNSKREEKLFNVTSTLRINTTTNEIFYCTFRRLDPEENHAAELVIPELPLAHPPNER

MFI at 100 nM (CD96 (human)): 3750
B10: variant CD155 IgV-Fc, T45Q, S52R, L104E (Fc fusion)
chain: WPPPGTGDVVVQAPTQVPGFLGDSVTLPCYLQVPNMEVTHVSQLQWARHGERGSMAVFHQTQGPSYSESKRLEFVAARLGAELRNASLRMFGLRVEDEGNYTCEFVTFPQGSRSVDIWLRVL

IFN gamma levels pg/mL (MLR) (human PD-1 (human) [4]): 1270 pg/mL
MFI at 50 nM (human PD-1 (human) [5]): 12600 MFI
B13: variant PD-L2 IgV H15Q/Q72H/V89D Fc fusion (Fc fusion)
chain: LFTVTVPKELYIIEQGSNVTLECNFDTGSHVNLGAITASLQKVENDTSPHRERATLLEEQLPLGKASFHIPHVQVRDEGQYQCIIIYGDAWDYKYLTLKVKA
